Assay results from publication PMC5712619, “3-Sulfogalactosyl-dependent adhesion of Escherichia coli HS multivalent adhesion molecule is attenuated by sulfatase activity” (The Journal of Biological Chemistry, 2017).

Biological target: mucin from porcine stomach type II (porcine)
Assay: ELISA; as a2, but mucin type II was first treated with supernatant of the sulfatase-deficient B. thetaiotaomicron anSME mutant for 24 h or 72 h

Chain of mucin from porcine stomach type II (porcine) (main, as listed by the source): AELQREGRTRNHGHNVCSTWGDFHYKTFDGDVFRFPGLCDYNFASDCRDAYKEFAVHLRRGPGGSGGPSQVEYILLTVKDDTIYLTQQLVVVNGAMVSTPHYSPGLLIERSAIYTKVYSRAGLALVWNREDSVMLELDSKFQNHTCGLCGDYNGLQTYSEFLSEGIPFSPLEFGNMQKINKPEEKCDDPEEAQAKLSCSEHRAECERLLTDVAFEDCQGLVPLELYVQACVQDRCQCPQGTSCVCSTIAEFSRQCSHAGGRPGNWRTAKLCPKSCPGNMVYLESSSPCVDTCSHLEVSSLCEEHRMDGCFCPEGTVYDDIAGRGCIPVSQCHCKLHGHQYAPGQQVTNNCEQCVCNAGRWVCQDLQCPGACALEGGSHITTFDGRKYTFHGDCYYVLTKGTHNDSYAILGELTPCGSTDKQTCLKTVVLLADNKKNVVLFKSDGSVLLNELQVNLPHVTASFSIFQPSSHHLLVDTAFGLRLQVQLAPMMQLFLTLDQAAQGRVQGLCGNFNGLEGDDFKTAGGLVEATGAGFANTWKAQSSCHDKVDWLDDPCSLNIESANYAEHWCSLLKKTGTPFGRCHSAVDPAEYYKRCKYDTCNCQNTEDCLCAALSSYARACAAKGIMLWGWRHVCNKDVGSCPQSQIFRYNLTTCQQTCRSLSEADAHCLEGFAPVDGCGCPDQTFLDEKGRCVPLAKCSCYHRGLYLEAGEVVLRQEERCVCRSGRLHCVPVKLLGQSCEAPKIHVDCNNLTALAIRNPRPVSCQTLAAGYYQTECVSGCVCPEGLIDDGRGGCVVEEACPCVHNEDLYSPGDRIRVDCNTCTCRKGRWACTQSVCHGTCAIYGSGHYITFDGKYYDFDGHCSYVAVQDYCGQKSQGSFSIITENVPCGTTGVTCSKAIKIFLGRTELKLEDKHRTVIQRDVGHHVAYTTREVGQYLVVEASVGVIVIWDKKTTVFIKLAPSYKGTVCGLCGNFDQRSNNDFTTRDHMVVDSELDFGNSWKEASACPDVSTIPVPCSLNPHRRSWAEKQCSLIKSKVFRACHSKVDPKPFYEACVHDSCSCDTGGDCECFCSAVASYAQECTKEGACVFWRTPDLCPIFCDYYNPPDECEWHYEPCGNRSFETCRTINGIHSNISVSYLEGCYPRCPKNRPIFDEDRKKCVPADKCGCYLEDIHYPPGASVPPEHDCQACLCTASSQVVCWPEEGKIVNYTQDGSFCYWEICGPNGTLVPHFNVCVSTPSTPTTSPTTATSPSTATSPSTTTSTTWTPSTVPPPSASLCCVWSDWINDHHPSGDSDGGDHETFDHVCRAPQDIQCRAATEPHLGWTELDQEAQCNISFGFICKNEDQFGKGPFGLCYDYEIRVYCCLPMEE

- loss of binding as percent of the loss seen with wild-type supernatant (24 h treatment of mucin with anSME mutant supernatant): 25%
- loss of binding as percent of the loss seen with wild-type supernatant (72 h treatment of mucin with anSME mutant supernatant): 50%
Substance: GST-MAM^HS (multivalent adhesion molecule from the gut commensal Escherichia coli HS, ΔTM construct) (domain or fragment)
